The target in assay [1] is T1, human GIP receptor (human, UniProt P48546 22-466).
T1 construct: whole, on cells; also called hGIPR
T1 sequence (looked up): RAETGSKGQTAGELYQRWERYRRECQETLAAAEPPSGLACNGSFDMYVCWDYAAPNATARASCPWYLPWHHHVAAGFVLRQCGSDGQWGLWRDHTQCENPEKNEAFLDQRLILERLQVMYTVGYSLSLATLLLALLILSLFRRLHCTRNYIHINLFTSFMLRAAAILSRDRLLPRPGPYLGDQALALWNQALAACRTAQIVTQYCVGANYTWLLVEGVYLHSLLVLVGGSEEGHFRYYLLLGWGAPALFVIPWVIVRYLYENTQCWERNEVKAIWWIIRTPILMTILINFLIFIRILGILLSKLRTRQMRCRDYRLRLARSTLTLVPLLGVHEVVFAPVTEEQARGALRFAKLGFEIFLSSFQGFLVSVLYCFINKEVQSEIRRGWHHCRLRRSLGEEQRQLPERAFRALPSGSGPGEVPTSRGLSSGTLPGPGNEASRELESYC
The assay can be described thus: 125I-hGIP competition binding, COS-7/hGIPR, 2% HSA.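 Further: nonspecific binding defined as radioligand binding to untransfected cells.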
Method: (§1) After incubation, the cells were washed twice in ice-cold binding buffer (+/−2% HSA) and lysed using 200 mM NaOH with 1% SDS for 30 min. Nonspecific binding was determined as the binding of radioactive ligand to untransfected cells.

Assay [2] concerns the target T1, human GIP receptor. The assay can be described thus: 125I-hGIP competition binding, COS-7/hGIPR, 0.1% casein.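 Further: nonspecific binding defined as radioligand binding measured on untransfected cells.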
Method: as §1
The target of assay [3] is T1, human GIP receptor. Briefly: 125I-hGIP competition binding, COS-7 cells expressing hGIPR.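 Further: nonspecific binding taken as radioligand bound by untransfected cells, binding buffer with or without 2% HSA.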
Method: as §1
Assay [4] addresses T1, human GIP receptor. The assay can be described thus: IC50 with 2% HSA over IC50 with 0.1% casein, 125I-hGIP competition, COS-7/hGIPR.
Method: as §1
For assay [5], the target named is T1, human GIP receptor. Briefly: cell-based or functional assay.

Ends that are not written are not given here. * marks the point of attachment. C16 diacid = O=C(O)CCCCCCCCCCCCCCC(=O)*; Palmitoyl = CCCCCCCCCCCCCCCC(=O)*; Myristoyl = CCCCCCCCCCCCCC(=O)*

B1: AT121 [hGIP(5-30)NH2-C14/5] (peptide)
peptide: Myristoyl-TFISDYSIAMDKIHQQDFVNWLLAQK-NH2
SMILES: CCCCCCCCCCCCCC(=O)N[C@H](C(=O)N[C@@H](Cc1ccccc1)C(=O)N[C@H](C(=O)N[C@@H](CO)C(=O)N[C@@H](CC(=O)O)C(=O)N[C@@H](Cc1ccc(O)cc1)C(=O)N[C@@H](CO)C(=O)N[C@H](C(=O)N[C@@H](C)C(=O)N[C@@H](CCSC)C(=O)N[C@@H](CC(=O)O)C(=O)N[C@@H](CCCCN)C(=O)N[C@H](C(=O)N[C@@H](Cc1c[nH]cn1)C(=O)N[C@@H](CCC(N)=O)C(=O)N[C@@H](CCC(N)=O)C(=O)N[C@@H](CC(=O)O)C(=O)N[C@@H](Cc1ccccc1)C(=O)N[C@H](C(=O)N[C@@H](CC(N)=O)C(=O)N[C@@H](Cc1c[nH]c2ccccc12)C(=O)N[C@@H](CC(C)C)C(=O)N[C@@H](CC(C)C)C(=O)N[C@@H](C)C(=O)N[C@@H](CCC(N)=O)C(=O)N[C@@H](CCCCN)C(N)=O)C(C)C)[C@@H](C)CC)[C@@H](C)CC)[C@@H](C)CC)[C@@H](C)O
As to B1, in the assay with human GIP receptor [1], the concentration for half-maximal inhibition (IC50) is 966 nM and the logIC50 was -6 log M. Also, in the assay with human GIP receptor [2], the IC50 stood at 170 nM and the logIC50 was -6.8 log M. In the assay with human GIP receptor [3], the IC50 came to 173 nM and the “log IC50” value is -6.8 log M. In the assay with human GIP receptor [4], the “Fold change HSA (2%)/Casein (0.1%)” value was found to be 5.7 fold.
With TKISDYSIAMDKIHQQDFVNWLLAQK (C16-diacid fatty acyl on Lys 6 (GIP numbering); C-terminal amide) [AT168 [hGIP(5-30)NH2[F6K]-C16diacid/6]], in the assay with human GIP receptor [5], the “cAMP agonism, Emax” value is 0; the “cAMP antagonism” value stood at 96 nM; the “cAMP antagonism, log” value is -7 log M. For the same molecule, in the assay with human GIP receptor [1], the half-inhibitory concentration (IC50) amounted to 100 nM and the logIC50 was -7 log M. In addition, in the assay with human GIP receptor [2], the IC50 was determined as 50.1 nM and the logIC50 is -7.3 log M. In the assay with human GIP receptor [3], the IC50 is 48 nM and the “log IC50” value is -7.3 log M. Besides, the “Fold change HSA (2%)/Casein (0.1%)” value with human GIP receptor [4] was 2 fold.

B2: AT171 [hGIP(5-30)NH2[D9K]-C16diacid/9] (peptide)
peptide: TFISK(C16 diacid)YSIAMDKIHQQDFVNWLLAQK-NH2
modifications: N-terminus assumed
SMILES: CC[C@H](C)[C@H](NC(=O)[C@H](CO)NC(=O)[C@H](Cc1ccc(O)cc1)NC(=O)[C@H](CCCCNC(=O)CCCCCCCCCCCCCCC(=O)O)NC(=O)[C@H](CO)NC(=O)[C@@H](NC(=O)[C@H](Cc1ccccc1)NC(=O)[C@@H](N)[C@@H](C)O)[C@@H](C)CC)C(=O)N[C@@H](C)C(=O)N[C@@H](CCSC)C(=O)N[C@@H](CC(=O)O)C(=O)N[C@@H](CCCCN)C(=O)N[C@H](C(=O)N[C@@H](Cc1c[nH]cn1)C(=O)N[C@@H](CCC(N)=O)C(=O)N[C@@H](CCC(N)=O)C(=O)N[C@@H](CC(=O)O)C(=O)N[C@@H](Cc1ccccc1)C(=O)N[C@H](C(=O)N[C@@H](CC(N)=O)C(=O)N[C@@H](Cc1c[nH]c2ccccc12)C(=O)N[C@@H](CC(C)C)C(=O)N[C@@H](CC(C)C)C(=O)N[C@@H](C)C(=O)N[C@@H](CCC(N)=O)C(=O)N[C@@H](CCCCN)C(N)=O)C(C)C)[C@@H](C)CC
Consider B2, for which, in the assay with human GIP receptor [5], the “cAMP agonism, Emax” value stood at 0; the “cAMP antagonism” value was 35 nM; the “cAMP antagonism, log” value is -7.5 log M. In the assay with human GIP receptor [1], the IC50 came to 661 nM and the logIC50 is -6.2 log M. In addition, in the assay with human GIP receptor [2], the IC50 was 79.4 nM and the logIC50 is -7.1 log M. In the assay with human GIP receptor [3], the 50% inhibitory concentration (IC50) was found to be 86 nM and the “log IC50” value is -7.1 log M. Besides, in the assay with human GIP receptor [4], the “Fold change HSA (2%)/Casein (0.1%)” value came to 8.3 fold.

B3: AT170 [hGIP(5-30)NH2[S8K]-C16diacid/8] (peptide)
peptide: TFIK(C16 diacid)DYSIAMDKIHQQDFVNWLLAQK-NH2
modifications: N-terminus assumed
SMILES: CC[C@H](C)[C@H](NC(=O)[C@H](CO)NC(=O)[C@H](Cc1ccc(O)cc1)NC(=O)[C@H](CC(=O)O)NC(=O)[C@H](CCCCNC(=O)CCCCCCCCCCCCCCC(=O)O)NC(=O)[C@@H](NC(=O)[C@H](Cc1ccccc1)NC(=O)[C@@H](N)[C@@H](C)O)[C@@H](C)CC)C(=O)N[C@@H](C)C(=O)N[C@@H](CCSC)C(=O)N[C@@H](CC(=O)O)C(=O)N[C@@H](CCCCN)C(=O)N[C@H](C(=O)N[C@@H](Cc1c[nH]cn1)C(=O)N[C@@H](CCC(N)=O)C(=O)N[C@@H](CCC(N)=O)C(=O)N[C@@H](CC(=O)O)C(=O)N[C@@H](Cc1ccccc1)C(=O)N[C@H](C(=O)N[C@@H](CC(N)=O)C(=O)N[C@@H](Cc1c[nH]c2ccccc12)C(=O)N[C@@H](CC(C)C)C(=O)N[C@@H](CC(C)C)C(=O)N[C@@H](C)C(=O)N[C@@H](CCC(N)=O)C(=O)N[C@@H](CCCCN)C(N)=O)C(C)C)[C@@H](C)CC
Turning to B3, in the assay with human GIP receptor [5], the “cAMP agonism, Emax” value was determined as 0; the “cAMP antagonism” value amounted to 507 nM; the “cAMP antagonism, log” value was -6.3 log M. In addition, in the assay with human GIP receptor [1], the concentration for half-maximal inhibition (IC50) was 1380 nM and the logIC50 is -5.9 log M. Besides, in the assay with human GIP receptor [2], the half-maximal inhibitory concentration (IC50) amounted to 631 nM and the logIC50 is -6.2 log M. Further, in the assay with human GIP receptor [3], the IC50 was determined as 628 nM and the “log IC50” value is -6.2 log M. Moreover, the “Fold change HSA (2%)/Casein (0.1%)” value with human GIP receptor [4] came to 2.2 fold.

B4: AT169 [hGIP(5-30)NH2[I7K]-C16diacid/7] (peptide)
peptide: TFK(C16 diacid)SDYSIAMDKIHQQDFVNWLLAQK-NH2
modifications: N-terminus assumed
SMILES: CC[C@H](C)[C@H](NC(=O)[C@H](CO)NC(=O)[C@H](Cc1ccc(O)cc1)NC(=O)[C@H](CC(=O)O)NC(=O)[C@H](CO)NC(=O)[C@H](CCCCNC(=O)CCCCCCCCCCCCCCC(=O)O)NC(=O)[C@H](Cc1ccccc1)NC(=O)[C@@H](N)[C@@H](C)O)C(=O)N[C@@H](C)C(=O)N[C@@H](CCSC)C(=O)N[C@@H](CC(=O)O)C(=O)N[C@@H](CCCCN)C(=O)N[C@H](C(=O)N[C@@H](Cc1c[nH]cn1)C(=O)N[C@@H](CCC(N)=O)C(=O)N[C@@H](CCC(N)=O)C(=O)N[C@@H](CC(=O)O)C(=O)N[C@@H](Cc1ccccc1)C(=O)N[C@H](C(=O)N[C@@H](CC(N)=O)C(=O)N[C@@H](Cc1c[nH]c2ccccc12)C(=O)N[C@@H](CC(C)C)C(=O)N[C@@H](CC(C)C)C(=O)N[C@@H](C)C(=O)N[C@@H](CCC(N)=O)C(=O)N[C@@H](CCCCN)C(N)=O)C(C)C)[C@@H](C)CC
For B4, in the assay with human GIP receptor [5], the “cAMP agonism, Emax” value stood at 0; the “cAMP antagonism” value came out at 37 nM; the “cAMP antagonism, log” value is -7.4 log M. For the same molecule, in the assay with human GIP receptor [1], the IC50 was found to be 166 nM and the logIC50 was -6.8 log M. Moreover, in the assay with human GIP receptor [2], the IC50 was determined as 28.8 nM and the logIC50 is -7.5 log M. In the assay with human GIP receptor [3], the IC50 worked out at 28 nM and the “log IC50” value was -7.5 log M. Moreover, the “Fold change HSA (2%)/Casein (0.1%)” value with human GIP receptor [4] was found to be 5.8 fold.

B5: AT122 [hGIP(5-30)NH2-C14/16] (peptide)
peptide: TFISDYSIAMDK(Myristoyl)IHQQDFVNWLLAQK-NH2
modifications: N-terminus assumed
SMILES: CCCCCCCCCCCCCC(=O)NCCCC[C@H](NC(=O)[C@H](CC(=O)O)NC(=O)[C@H](CCSC)NC(=O)[C@H](C)NC(=O)[C@@H](NC(=O)[C@H](CO)NC(=O)[C@H](Cc1ccc(O)cc1)NC(=O)[C@H](CC(=O)O)NC(=O)[C@H](CO)NC(=O)[C@@H](NC(=O)[C@H](Cc1ccccc1)NC(=O)[C@@H](N)[C@@H](C)O)[C@@H](C)CC)[C@@H](C)CC)C(=O)N[C@H](C(=O)N[C@@H](Cc1c[nH]cn1)C(=O)N[C@@H](CCC(N)=O)C(=O)N[C@@H](CCC(N)=O)C(=O)N[C@@H](CC(=O)O)C(=O)N[C@@H](Cc1ccccc1)C(=O)N[C@H](C(=O)N[C@@H](CC(N)=O)C(=O)N[C@@H](Cc1c[nH]c2ccccc12)C(=O)N[C@@H](CC(C)C)C(=O)N[C@@H](CC(C)C)C(=O)N[C@@H](C)C(=O)N[C@@H](CCC(N)=O)C(=O)N[C@@H](CCCCN)C(N)=O)C(C)C)[C@@H](C)CC
For the molecule B5, in the assay with human GIP receptor [1], the 50% inhibitory concentration (IC50) turned out to be 6080 nM and the logIC50 was -5.2 log M. Besides, in the assay with human GIP receptor [2], the IC50 worked out at 1230 nM and the logIC50 is -5.9 log M. Also, in the assay with human GIP receptor [3], the IC50 stood at 591 nM and the “log IC50” value is -6.2 log M. In addition, the “Fold change HSA (2%)/Casein (0.1%)” value with human GIP receptor [4] came out at 4.9 fold.

B6: AT124 [hGIP(5-30)NH2-C16/5] (peptide)
peptide: Palmitoyl-TFISDYSIAMDKIHQQDFVNWLLAQK-NH2
SMILES: CCCCCCCCCCCCCCCC(=O)N[C@H](C(=O)N[C@@H](Cc1ccccc1)C(=O)N[C@H](C(=O)N[C@@H](CO)C(=O)N[C@@H](CC(=O)O)C(=O)N[C@@H](Cc1ccc(O)cc1)C(=O)N[C@@H](CO)C(=O)N[C@H](C(=O)N[C@@H](C)C(=O)N[C@@H](CCSC)C(=O)N[C@@H](CC(=O)O)C(=O)N[C@@H](CCCCN)C(=O)N[C@H](C(=O)N[C@@H](Cc1c[nH]cn1)C(=O)N[C@@H](CCC(N)=O)C(=O)N[C@@H](CCC(N)=O)C(=O)N[C@@H](CC(=O)O)C(=O)N[C@@H](Cc1ccccc1)C(=O)N[C@H](C(=O)N[C@@H](CC(N)=O)C(=O)N[C@@H](Cc1c[nH]c2ccccc12)C(=O)N[C@@H](CC(C)C)C(=O)N[C@@H](CC(C)C)C(=O)N[C@@H](C)C(=O)N[C@@H](CCC(N)=O)C(=O)N[C@@H](CCCCN)C(N)=O)C(C)C)[C@@H](C)CC)[C@@H](C)CC)[C@@H](C)CC)[C@@H](C)O
For B6, the 50% inhibitory concentration (IC50) in the assay with human GIP receptor [1] worked out at 8240 nM; with human GIP receptor [2], 1590 nM; with human GIP receptor [3], 361 nM. For the same molecule, the logIC50 was -5.1 log M with human GIP receptor [1] and -5.8 log M with human GIP receptor [2]. The “log IC50” value with human GIP receptor [3] is -6.4 log M. In addition, the “Fold change HSA (2%)/Casein (0.1%)” value in the assay with human GIP receptor [4] came to 5.2 fold.

Broadly, the IC50 is the point on the concentration scale where inhibition reaches its midpoint.

The record behind these values is patent publication US20200087373A1 (UNIVERSITY OF COPENHAGEN, published 2020).
